Tests used:
[1] = test system: KPL-4 cells; assay: Cell growth inhibition of drug 1 (4), CellTiter-Glo; type: cell-based; settings: KPL4, 144 h; human breast cancer cell line; 6 days culture; read-out: anticellular effect IC50 on KPL-4 cells
Experimental: KPL-4 cells (Dr. Junichi Kurebayashi, Kawasaki Medical School, British Journal of Cancer, (1999) 79(5/6). 707-717), a human breast cancer cell line, were prepared with RPMI1640 Medium (Thermo Fisher Scientific; hereinafter, referred to as RPMI medium) containing 10% fetal bovine serum (Hyclone) to reach 6.25×10^3 cells/mL, and 80 μL portions of them were added to a 96-well cell culture microplate. After addition of the cells, the cells were cultured at 37° C. and 5% CO2 overnight.
On the next day, 20 μL portions of drug 1 diluted with RPMI medium to 100 nM, 20 nM, 4 nM, 0.8 nM, 0.16 nM, 0.032 nM, 6.4 pM, 1.3 pM, and 0.26 pM were added to the microplate. To each well without any antibody-drug conjugate, 20 μL of RPMI medium was added. KPL-4 was cultured at 37° C. and 5% CO2 for 6 days. After culturing, the microplate was taken out of the incubator, and left to stand at room temperature for 30 minutes. CellTiter-Glo Luminescent Cell Viability Assay (Promega Corporation) in an amount equivalent to that of the culture solution was added, and stirred using a plate mixer. The microplate was left to stand at room temperature for 10 minutes, and thereafter the amount of emission was measured by using a plate reader (PerkinElmer). Cell survival rates were calculated by using the same formula as in Example 37.

[2] = biological target: T1, human CLDN3 (human, UniProt O15551 1-220); assay: flow cytometry on transiently transfected 293T cells
T1 construct: whole, on cells
T1 sequence (looked up): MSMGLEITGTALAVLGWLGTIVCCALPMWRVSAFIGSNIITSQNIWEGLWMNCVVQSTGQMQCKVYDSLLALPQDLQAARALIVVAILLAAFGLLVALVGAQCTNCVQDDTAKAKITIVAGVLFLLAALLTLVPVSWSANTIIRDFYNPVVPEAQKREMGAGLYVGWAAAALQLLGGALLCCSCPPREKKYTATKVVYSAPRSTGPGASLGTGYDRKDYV
Experimental: (§1) Binding activity of the mouse anti-CLDN6 antibodies produced in Example 6 to human CLDN6 and its family molecules, CLDN3, CLDN4, and CLDN9, was evaluated by using a flow cytometry method. Human CLDN3/pCMV6-Entry, human CLDN4/pCMV6-Entry, human CLDN6/pCMV-Entry, human CLDN9/pCMV6-Entry, or pCMV6-Entry purchased from OriGene Technologies, Inc. was transiently transferred into 293T cells (Thermo Fisher Scientific, HCL4517) by using Lipofectamine 2000 (Thermo Fisher Scientific), and the cells were cultured under conditions of 37° C. and 5% CO₂ overnight, and then a cell suspension was prepared. […] The cells were washed twice with Dulbecco's phosphate buffered saline (Sigma-Aldrich Co. LLC) containing 5% fetal bovine serum (Hyclone) (hereinafter, referred to as 5% FBS-containing PBS), and FLUORESCEIN-CONJUGATED GOAT IGG FRACTION TO MOUSE IGG (WHOLE MOLECULE) (MP Biomedicals, Inc.) 500-fold diluted with 5% FBS-containing PBS was then added thereto, and the cells were suspended and left to stand at 4° C. for 1 hour. After washing twice with 5% FBS-containing PBS, detection was carried out by using a flow cytometer (FC500; Beckman Coulter, Inc.). Data analysis was carried out by using FlowJo (Tree Star, Inc.). […] In each graph in FIG. 40, the ordinate represents FITC fluorescence intensity indicating the amount of the binding antibody and the abscissa represents antibody concentrations.
(§2) The binding activity of the humanized anti-CLDN6 antibody produced in Example 10 to human CLDN6 and its family molecules, CLDN3, CLDN4, and CLDN9, was evaluated by using a flow cytometry method.

[3] = biological target: T2, human CLDN9 (human, UniProt O95484 1-217); assay: as above
T2 construct: NP_066192; It was expressed on 293T cells transiently transfected with human CLDN9/pCMV6-Entry (OriGene); also called claudin-9
T2 sequence: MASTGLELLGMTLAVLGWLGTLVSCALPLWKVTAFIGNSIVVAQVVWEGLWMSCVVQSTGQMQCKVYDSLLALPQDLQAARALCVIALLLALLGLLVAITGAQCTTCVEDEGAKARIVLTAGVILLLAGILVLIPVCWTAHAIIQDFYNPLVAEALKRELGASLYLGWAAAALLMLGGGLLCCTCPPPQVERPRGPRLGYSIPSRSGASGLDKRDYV
Experimental: as §1, §2

[4] = biological target: T3, human CLDN4 (human, UniProt O14493 1-209); assay: as above
T3 construct: whole, on cells
T3 sequence (looked up): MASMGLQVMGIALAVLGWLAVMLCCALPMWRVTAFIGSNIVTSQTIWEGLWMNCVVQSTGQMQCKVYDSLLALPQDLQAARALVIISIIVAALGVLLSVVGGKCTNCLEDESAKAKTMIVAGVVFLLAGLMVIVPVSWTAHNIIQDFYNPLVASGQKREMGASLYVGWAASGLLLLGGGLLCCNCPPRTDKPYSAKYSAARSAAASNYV
Experimental: as §1, §2

[5] = biological target: T4, human CLDN6 (human, UniProt P56747 1-220); assay: immunoprecipitation from NTERA-2 cell lysate, SDS-PAGE, mass spectrometry of the 18 kDa band
T4 construct: Four-transmembrane protein, NP_067018; It was also expressed on CHO-K1 cells by cDNA transfection; In the immunoprecipitation it was the endogenous protein from NTERA-2 cell lysate; also called hCLDN6; claudin-6
T4 sequence: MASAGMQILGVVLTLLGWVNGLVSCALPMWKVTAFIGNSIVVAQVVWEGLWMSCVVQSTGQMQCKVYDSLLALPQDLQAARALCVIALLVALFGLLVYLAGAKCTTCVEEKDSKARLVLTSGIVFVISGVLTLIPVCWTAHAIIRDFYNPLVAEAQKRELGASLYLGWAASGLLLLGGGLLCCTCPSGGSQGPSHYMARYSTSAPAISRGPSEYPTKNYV

[6] = biological target: T4, human CLDN6; assay: FACS on CHO-K1 cells transfected with human claudin-6 cDNA
[7] = test system: BxPC-3; assay: Internalization activity by Mab-ZAP (saporin-conjugated anti-mouse IgG), cell survival; type: cell-based; settings: human CLDN6-negative pancreatic cancer cell line BxPC-3; antibody 1 nM, Mab-ZAP 0.5 nM; 5 days
Experimental: (§3) Internalization activity of the mouse anti-CLDN6 antibodies B1 and C7 was evaluated by using the anti-mouse IgG reagent, to which a toxin that inhibits protein synthesis (saporin) had been conjugated, Mab-ZAP (Advanced Targeting Systems). In this evaluation, Mab-ZAP is incorporated into cells in a manner depending on the internalization activity of a mouse anti-CLDN6 antibody, and saporin, which inhibits protein synthesis, is released in the cells to suppress cell growth.
(§4) JEG-3(ATCC HTB-36), a human choriocarcinoma cell line of human CLDN6-positive cells, NIH:OVCAR-3 (ATCC HTB-161), a human ovarian cancer cell line of human CLDN6-positive cells, or BxPC-3 (ATCC CRL-1687), a human pancreatic cancer cell line of human CLDN6-negative cells, was seeded in a 96-well cell culture microplate at 2×10^3 cells/well, and cultured under conditions of 37° C. and 5% CO2 overnight. On the next day, a mixed solution obtained by mixing each mouse anti-CLDN6 antibody or mouse IgG1 antibody (R&D Systems, Inc.) to a final concentration of 1 nM, with Mab-ZAP (final concentration: 0.5 nM) or AffiniPure Goat Anti-Mouse IgG, Fcγ Fragment Specific (Jackson ImmunoResearch Laboratories Inc.) (final concentration: 0.5 nM), without conjugated toxin, was added, and the cells were cultured under conditions of 37° C. and 5% CO2 for 5 days. The number of surviving cells was determined through quantification of ATP activity by using CellTiter-Glo Luminescent Cell Viability Assay (Promega Corporation).

[8] = test system: NIH:OVCAR-3; assay: as above; type: cell-based; settings: human CLDN6-positive ovarian cancer cell line NIH:OVCAR-3; antibody 1 nM, Mab-ZAP 0.5 nM; 5 days
Experimental: as §3, §4

[9] = test system: JEG-3; assay: as above; type: cell-based; settings: human CLDN6-positive choriocarcinoma cell line JEG-3; antibody 1 nM, Mab-ZAP 0.5 nM; 5 days
Experimental: as §3, §4

[10] = biological target: T5, human claudin-6 (Homo sapiens, UniProt P56747); assay: FACS analysis of 218B1/218C7 antibodies on human claudin-6-expressing CHO-K1 cells; type: binding; settings: forced expression by cDNA transfection
T5 construct: expressed in transfected cells; host or cells: CHO-K1 cells
T5 sequence (P56747 1-220): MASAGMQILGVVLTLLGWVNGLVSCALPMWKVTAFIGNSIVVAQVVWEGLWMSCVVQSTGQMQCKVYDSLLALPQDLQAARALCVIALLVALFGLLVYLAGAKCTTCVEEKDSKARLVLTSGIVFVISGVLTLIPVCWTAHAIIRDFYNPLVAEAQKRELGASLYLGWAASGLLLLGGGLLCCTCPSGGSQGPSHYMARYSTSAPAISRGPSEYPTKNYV
Experimental: Since the antigen for the 218B1 antibody and 218C7 antibody was estimated to be claudin-6 from the mass spectrometry, forced expression analysis by cDNA transfection was carried out.

`COc1ccc(C2=CN3C(=O)c4cc(OC)c(OCCCCCOc5cc6c(cc5OC)C(=O)N5CC7(CC7)C[C@H]5C=N6)cc4NC[C@@H]3C2)cc1` [Drug 1, (11a′S)-7′-Methoxy-8′-[(5-{[(11aS)-7-methoxy-2-(4-methoxyphenyl)-5-oxo-5,10,11,11a-tetrahydro-1H-pyrrolo[2,1-c][1,4]benzodiazepin-8-yl]oxy}pentyl)oxy]-1′,11a′-dihydro-5′H-spiro[cyclopropane-1,2′-pyrrolo[2,1-c][1,4]benzodiazepine]-5′-one] was tested, and the IC50 [1] was 0.01 to 0.02 nM.

B1: mouse anti-CLDN6 antibody B1 (antibody, V domains shown)
VH: EVQLQQSGPELVKPGASVKISCKTSGYTFTEYTMHWVQQSHGKSLEWIGGVNPNSGDTSYNQKFKGKATLTVDKSSSTAYMELRSLTSEDSAVYYCARPGGYDVGYYAMDYWGQGTSVTVSS
VL: DIQMTQTASSLSASLGDRVTISCRASQDINNYLNWYQQKPDGTVKLLIYFTSRLHSGVPSRFSGSGSGTHYSLTITNLEQEDIATYFCQQGYPLPWTFGGGTKLEIK
notes: Mouse monoclonal antibody purified from hybridoma 218B1 culture supernatant; a mouse IgG1 antibody was used as the control; also called B1 antibody; 218B1 antibody
B1: no binding (tested: 30 µg/mL (highest concentration tested)) [2]; binds [3]; no binding (tested: 30 µg/mL (highest concentration tested)) [4]. B1: binds [5].

B2: mouse anti-CLDN6 antibody C7 (antibody, V domains shown)
VH: EVQLQQSGPELVKPGASVKISCKTSGYTFTEYTMHWVQQSHGKSLEWIGGVNPNSGDTSYNQKFKGKATLTVDKSSSTAYMELRSLTSEDSAVYYCARPGGYDVGYYAMDYWGQGTSVTVSS
VL: DIQMTQTASSLSASLGDRVTISCRASQDINNYLNWYQQKPDGTVKLLIYSTSRLHSGVPSRFSGSGSGTHYSLTITHLEQEDIATYFCQQGYPLPWTFGGGTKLEIK
notes: Mouse monoclonal antibody purified from hybridoma 218C7 culture supernatant; a mouse IgG1 antibody was used as the control; also called C7 antibody; 218C7 antibody
B2: binds [6]; no binding (tested: 30 µg/mL (highest concentration tested)) [2]; binds [3]. B2: no binding (tested: 30 µg/mL (highest concentration tested)) [4].

B3: C7: mouse anti-CLDN6 antibody; heavy/light chain variable regions SEQ ID NO: 25 and 23 (antibody, listed as Mus musculus, V domains shown)
VH: EVQLQQSGPELVKPGASVKISCKTSGYTFTEYTMHWVQQSHGKSLEWIGGVNPNSGDTSYNQKFKGKATLTVDKSSSTAYMELRSLTSEDSAVYYCARPGGYDVGYYAMDYWGQGTSVTVSS
VL: DIQMTQTASSLSASLGDRVTISCRASQDINNYLNWYQQKPDGTVKLLIYSTSRLHSGVPSRFSGSGSGTHYSLTITHLEQEDIATYFCQQGYPLPWTFGGGTKLEIK
modifications: amino acid sequence of variable region of C7 antibody heavy chain; amino acid sequence of variable region of C7 antibody light chain
B3 was tested, and the “cell growth-suppressing effect (relative survival rate) with Mab-ZAP” value [7] was “no cell growth-suppressing effect”, the “cell growth-suppressing effect (relative survival rate) with Mab-ZAP” value [8] was “cell growth-suppressing effect” and the “cell growth-suppressing effect (relative survival rate) with Mab-ZAP” value [9] was “cell growth-suppressing effect”. For the same molecule, the “FACS reaction for human claudin-6-expressing CHO-K1 cells” value [10] was “strong positive reaction”.
